Measured values from patent US20240117334A1 (VERTEX PHARMACEUTICALS, published 2024).
Where “and” joins values, the source holds several entries; their conditions need not be identical. Equal entries are not always repeated.

T1: Plasma antichymotrypsin (ACT) (UniProt P01011 24-423)
T1 construct: also called plasma ACT
T1 sequence (looked up): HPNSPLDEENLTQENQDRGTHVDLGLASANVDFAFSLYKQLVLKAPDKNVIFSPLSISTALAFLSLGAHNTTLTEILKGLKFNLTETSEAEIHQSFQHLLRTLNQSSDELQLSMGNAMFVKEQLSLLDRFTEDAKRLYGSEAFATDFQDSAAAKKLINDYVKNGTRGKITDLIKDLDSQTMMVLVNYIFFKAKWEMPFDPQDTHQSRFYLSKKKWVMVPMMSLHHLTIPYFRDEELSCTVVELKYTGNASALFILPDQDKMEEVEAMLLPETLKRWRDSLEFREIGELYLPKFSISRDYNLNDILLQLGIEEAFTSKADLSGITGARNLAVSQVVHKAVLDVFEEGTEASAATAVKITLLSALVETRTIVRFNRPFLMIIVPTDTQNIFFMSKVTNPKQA


Tests used:
Human Factor B [1] = molecular target: T2, Human Factor B (human, UniProt P00751 26-764); assay: cell-based or functional assay
T2 sequence (P00751 26-764 limits assumed): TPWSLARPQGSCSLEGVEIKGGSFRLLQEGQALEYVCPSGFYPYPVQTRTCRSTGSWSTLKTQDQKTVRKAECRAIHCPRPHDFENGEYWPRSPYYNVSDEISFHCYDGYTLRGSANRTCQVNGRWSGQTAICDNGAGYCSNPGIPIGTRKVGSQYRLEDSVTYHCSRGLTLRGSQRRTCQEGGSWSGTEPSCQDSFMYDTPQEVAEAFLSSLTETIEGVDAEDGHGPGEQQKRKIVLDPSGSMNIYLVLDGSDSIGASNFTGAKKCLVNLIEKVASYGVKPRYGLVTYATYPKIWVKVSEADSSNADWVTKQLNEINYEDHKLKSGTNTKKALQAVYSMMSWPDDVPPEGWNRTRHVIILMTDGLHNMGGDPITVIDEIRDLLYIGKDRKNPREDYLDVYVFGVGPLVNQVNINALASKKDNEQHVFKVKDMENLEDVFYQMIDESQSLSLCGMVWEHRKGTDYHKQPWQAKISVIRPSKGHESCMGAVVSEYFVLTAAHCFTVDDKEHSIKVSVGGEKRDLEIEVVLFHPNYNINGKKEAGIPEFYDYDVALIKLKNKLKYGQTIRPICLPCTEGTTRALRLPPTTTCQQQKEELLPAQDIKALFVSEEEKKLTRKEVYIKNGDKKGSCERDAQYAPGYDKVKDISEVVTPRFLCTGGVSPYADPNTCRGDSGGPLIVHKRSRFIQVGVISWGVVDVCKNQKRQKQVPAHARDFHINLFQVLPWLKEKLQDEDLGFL

[2] = molecular target: T1, Plasma antichymotrypsin (ACT); assay: serpin inhibition of the protease
Human Factor B [3] = molecular target: T2, Human Factor B; assay: cell-based or functional assay; remark: listed apart in the source

fB Cleavage, 80% plasma EC50 (Human Factor B [1])	kapp [2] [M⁻¹ s⁻¹]	fB Cleavage EC50 (Human Factor B [1]) [nM]	Hu fB Add-Back EC50 (Human Factor B [3])	Binder
13900 nM	193			chymase C22S/K40L/F41H/L99N/F173Y/S218L/A226R (enzyme) IIGGTESKPHSRPYMAYLEIVTSNGPSLHCGGFLIRRNFVLTAAHCAGRSITVTLGAHNITEEEDTWQKLEVIKQFRHPKYNTSTNHHDIMLLKLKEKASLTLAVGTLPFPSQFNFVPPGRMCRVAGWGRTGVLKPGSDTLQEVKLRLMDPQACSHYRDFDHNLQLCVGNPRKTKSAFKGDSGGPLLCAGVAQGIVSYGRLDAKPPRVFTRISHYRPWINQILQAN
17200 nM	139			chymase C22S/K40L/F41K/L99H/G151S/F173Y/S218L/A226R (enzyme) IIGGTESKPHSRPYMAYLEIVTSNGPSLKCGGFLIRRNFVLTAAHCAGRSITVTLGAHNITEEEDTWQKLEVIKQFRHPKYNTSTHHHDIMLLKLKEKASLTLAVGTLPFPSQFNFVPPGRMCRVAGWGRTGVLKPSSDTLQEVKLRLMDPQACSHYRDFDHNLQLCVGNPRKTKSAFKGDSGGPLLCAGVAQGIVSYGRLDAKPPRVFTRISHYRPWINQILQAN
4090 nM and 3760 nM	37	119		chymase C22S/K40L/F41R/L99N/F173Y/D175N/S218L/A226R (enzyme, also called MS No. 15) IIGGTESKPHSRPYMAYLEIVTSNGPSLRCGGFLIRRNFVLTAAHCAGRSITVTLGAHNITEEEDTWQKLEVIKQFRHPKYNTSTNHHDIMLLKLKEKASLTLAVGTLPFPSQFNFVPPGRMCRVAGWGRTGVLKPGSDTLQEVKLRLMDPQACSHYRNFDHNLQLCVGNPRKTKSAFKGDSGGPLLCAGVAQGIVSYGRLDAKPPRVFTRISHYRPWINQILQAN
14800 nM	147			chymase C22S/K40L/F41K/L99H/F173Y/S218L/A226R (enzyme) IIGGTESKPHSRPYMAYLEIVTSNGPSLKCGGFLIRRNFVLTAAHCAGRSITVTLGAHNITEEEDTWQKLEVIKQFRHPKYNTSTHHHDIMLLKLKEKASLTLAVGTLPFPSQFNFVPPGRMCRVAGWGRTGVLKPGSDTLQEVKLRLMDPQACSHYRDFDHNLQLCVGNPRKTKSAFKGDSGGPLLCAGVAQGIVSYGRLDAKPPRVFTRISHYRPWINQILQAN
11200 nM	317			chymase C22S/K40M/F41R/L99N/G151S/F173Y/S218L/A226R (enzyme) IIGGTESKPHSRPYMAYLEIVTSNGPSMRCGGFLIRRNFVLTAAHCAGRSITVTLGAHNITEEEDTWQKLEVIKQFRHPKYNTSTNHHDIMLLKLKEKASLTLAVGTLPFPSQFNFVPPGRMCRVAGWGRTGVLKPSSDTLQEVKLRLMDPQACSHYRDFDHNLQLCVGNPRKTKSAFKGDSGGPLLCAGVAQGIVSYGRLDAKPPRVFTRISHYRPWINQILQAN
15600 nM	190	379		chymase C22S/K40L/F41R/L99N/F173Y/S218L/A226R (enzyme) IIGGTESKPHSRPYMAYLEIVTSNGPSLRCGGFLIRRNFVLTAAHCAGRSITVTLGAHNITEEEDTWQKLEVIKQFRHPKYNTSTNHHDIMLLKLKEKASLTLAVGTLPFPSQFNFVPPGRMCRVAGWGRTGVLKPGSDTLQEVKLRLMDPQACSHYRDFDHNLQLCVGNPRKTKSAFKGDSGGPLLCAGVAQGIVSYGRLDAKPPRVFTRISHYRPWINQILQAN
	935	605		chymase C22S/S189T/A190S/A226R (enzyme) IIGGTESKPHSRPYMAYLEIVTSNGPSKFCGGFLIRRNFVLTAAHCAGRSITVTLGAHNITEEEDTWQKLEVIKQFRHPKYNTSTLHHDIMLLKLKEKASLTLAVGTLPFPSQFNFVPPGRMCRVAGWGRTGVLKPGSDTLQEVKLRLMDPQACSHFRDFDHNLQLCVGNPRKTKTSFKGDSGGPLLCAGVAQGIVSYGRSDAKPPRVFTRISHYRPWINQILQAN
5700 nM	28			chymase C22S/K40L/F41K/L99N/F173Y/D175N/S218L/A226R (enzyme, also called MS No. 8) IIGGTESKPHSRPYMAYLEIVTSNGPSLKCGGFLIRRNFVLTAAHCAGRSITVTLGAHNITEEEDTWQKLEVIKQFRHPKYNTSTNHHDIMLLKLKEKASLTLAVGTLPFPSQFNFVPPGRMCRVAGWGRTGVLKPGSDTLQEVKLRLMDPQACSHYRNFDHNLQLCVGNPRKTKSAFKGDSGGPLLCAGVAQGIVSYGRLDAKPPRVFTRISHYRPWINQILQAN
17100 nM	252			chymase C22S/K40L/F41L/L99N/G151H/F173Y/S218V/A226R (enzyme) IIGGTESKPHSRPYMAYLEIVTSNGPSLLCGGFLIRRNFVLTAAHCAGRSITVTLGAHNITEEEDTWQKLEVIKQFRHPKYNTSTNHHDIMLLKLKEKASLTLAVGTLPFPSQFNFVPPGRMCRVAGWGRTGVLKPHSDTLQEVKLRLMDPQACSHYRDFDHNLQLCVGNPRKTKSAFKGDSGGPLLCAGVAQGIVSYGRVDAKPPRVFTRISHYRPWINQILQAN
			65.9 nM and 125 nM	MTSP-1 A77aT/F94Y/C122S/D125G (enzyme) VVGGTDADEGEWPWQVSLHALGQGHICGASLISPNWLVSAAHCYIDDRGFRYSDPTQWTAFLGLHDQSQRSTPGVQERRLKRIISHPFYNDFTFDYDIALLELEKPAEYSSMVRPISLPGASHVFPAGKAIWVTGWGHTQYGGTGALILQKGEIRVINQTTCENLLPQQITPRMMCVGFLSGGVDSCQGDSGGPLSSVEADGRIFQAGVVSWGDGCAQRNKPGVYTRLPLFRDWIKENTGV
			283 nM	MTSP-1 I41A/F97D/F99L/C122S (enzyme) VVGGTDADEGEWPWQVSLHALGQGHACGASLISPNWLVSAAHCYIDDRGFRYSDPTQWTAFLGLHDQSQRSAPGVQERRLKRIISHPFFNDDTLDYDIALLELEKPAEYSSMVRPISLPDASHVFPAGKAIWVTGWGHTQYGGTGALILQKGEIRVINQTTCENLLPQQITPRMMCVGFLSGGVDSCQGDSGGPLSSVEADGRIFQAGVVSWGDGCAQRNKPGVYTRLPLFRDWIKENTGV
			223 nM	MTSP-1 I41N/F97D/F99L/C122S/C[17]S/C[19]S (enzyme) VVGGTDADEGEWPWQVSLHALGQGHNCGASLISPNWLVSAAHCYIDDRGFRYSDPTQWTAFLGLHDQSQRSAPGVQERRLKRIISHPFFNDDTLDYDIALLELEKPAEYSSMVRPISLPDASHVFPAGKAIWVTGWGHTQYGGTGALILQKGEIRVINQTTCENLLPQQITPRMMCVGFLSGGVDSCQGDSGGPLSSVEADGRIFQAGVVSWGDGCAQRNKPGVYTRLPLFRDWIKENTGV
			283 nM and 395 nM	MTSP-1 I41G/F97D/F99L/C122S/Y146D/C[17]S/C[19]S (enzyme) VVGGTDADEGEWPWQVSLHALGQGHGCGASLISPNWLVSAAHCYIDDRGFRYSDPTQWTAFLGLHDQSQRSAPGVQERRLKRIISHPFFNDDTLDYDIALLELEKPAEYSSMVRPISLPDASHVFPAGKAIWVTGWGHTQDGGTGALILQKGEIRVINQTTCENLLPQQITPRMMCVGFLSGGVDSCQGDSGGPLSSVEADGRIFQAGVVSWGDGCAQRNKPGVYTRLPLFRDWIKENTGV
			362 nM and 358 nM and 292 nM	MTSP-1 I41G/F97E/F99L/C122S/C[17]S/C[19]S (enzyme) VVGGTDADEGEWPWQVSLHALGQGHGCGASLISPNWLVSAAHCYIDDRGFRYSDPTQWTAFLGLHDQSQRSAPGVQERRLKRIISHPFFNDETLDYDIALLELEKPAEYSSMVRPISLPDASHVFPAGKAIWVTGWGHTQYGGTGALILQKGEIRVINQTTCENLLPQQITPRMMCVGFLSGGVDSCQGDSGGPLSSVEADGRIFQAGVVSWGDGCAQRNKPGVYTRLPLFRDWIKENTGV
			4590 nM and 3490 nM	MTSP-1 F97L/T98G/F99V/C122S/C[17]S/C[19]S/-null_D96insD (enzyme) VVGGTDADEGEWPWQVSLHALGQGHICGASLISPNWLVSAAHCYIDDRGFRYSDPTQWTAFLGLHDQSQRSAPGVQERRLKRIISHPFFNDDLGVDYDIALLELEKPAEYSSMVRPISLPDASHVFPAGKAIWVTGWGHTQYGGTGALILQKGEIRVINQTTCENLLPQQITPRMMCVGFLSGGVDSCQGDSGGPLSSVEADGRIFQAGVVSWGDGCAQRNKPGVYTRLPLFRDWIKENTGV
